Experimental data taken from publication PMC12618663.

Legend:
[1] = molecular target: TMexC1 adapter prepared alone, C-terminal 6x His tag (Klebsiella pneumoniae); assay: SEC
[2] = molecular target: TMexC1 adapter, Strep-tagged, from the single plasmid pBAD24::tmexCD1-toprJ1 (Klebsiella pneumoniae); assay: cryo-EM structure
[3] = molecular target: TMexD1 transporter, C-terminal 6x His tag (pET28::tmexD1) (Klebsiella pneumoniae); assay: SEC
[4] = molecular target: TMexD1 transporter, tag-free, from the single plasmid pBAD24::tmexCD1-toprJ1 (Klebsiella pneumoniae); assay: cryo-EM structure
[5] = molecular target: TOprJ1 outer-membrane channel prepared alone, C-terminal 6x His tag (pET28::toprJ1) (Klebsiella pneumoniae); assay: negative-stain electron microscopy
[6] = molecular target: TOprJ1 outer-membrane channel prepared alone, C-terminal 6x His tag (pET28::toprJ1) (Klebsiella pneumoniae); assay: SEC
[7] = molecular target: TOprJ1 outer-membrane channel, 6x His-tagged, from the single plasmid pBAD24::tmexCD1-toprJ1 (Klebsiella pneumoniae); assay: cryo-EM structure

Question: Which stoichiometry N [1] does the source give for “TMexC1 adapter prepared alone, C-terminal 6x His tag (natural protein)” here?
Answer: 6

Question: For “TMexC1 adapter, Strep-tagged, from the single plasmid pBAD24::tmexCD1-toprJ1 (natural protein)”, which stoichiometry N [2] is on record?
Answer: 6

Question: “TMexD1 transporter, C-terminal 6x His tag (pET28::tmexD1) (natural protein)” was tested. Which stoichiometry N [3] did it give?
Answer: 3

Question: Which stoichiometry N [4] does the source give for “TMexD1 transporter, tag-free, from the single plasmid pBAD24::tmexCD1-toprJ1 (natural protein)” here?
Answer: 3

Question: Which results are given for “TOprJ1 outer-membrane channel prepared alone, C-terminal 6x His tag (pET28::toprJ1) (natural protein)”?
Answer: stoichiometry N [5]: 3; stoichiometry N [6]: 3

Question: For “TOprJ1 outer-membrane channel, 6x His-tagged, from the single plasmid pBAD24::tmexCD1-toprJ1 (natural protein)”, which stoichiometry N [7] is on record?
Answer: 3
